# T1: Rb^380-816/780A, unphosphorylated (UniProt P06400 380-816, 780A)
# T1 sequence (looked up): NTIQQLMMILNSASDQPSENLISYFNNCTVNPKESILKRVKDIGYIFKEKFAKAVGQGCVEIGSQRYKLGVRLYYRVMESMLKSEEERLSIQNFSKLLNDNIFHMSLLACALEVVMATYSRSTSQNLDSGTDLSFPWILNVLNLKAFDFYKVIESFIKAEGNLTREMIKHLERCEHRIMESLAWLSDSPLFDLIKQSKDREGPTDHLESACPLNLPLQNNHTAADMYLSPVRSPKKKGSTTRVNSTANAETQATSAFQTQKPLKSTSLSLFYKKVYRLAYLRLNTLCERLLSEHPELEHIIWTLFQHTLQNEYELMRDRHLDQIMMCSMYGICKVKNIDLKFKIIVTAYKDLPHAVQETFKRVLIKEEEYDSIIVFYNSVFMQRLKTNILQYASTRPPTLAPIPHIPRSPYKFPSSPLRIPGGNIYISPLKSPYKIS
# How the values were obtained:
# Test in all cases: ITC
# [1] = molecular target: Rb^380-816∆PL/S780A, phosphorylated (UniProt P06400)
# [2] = molecular target: Rb^380-794∆PL/S780A, unphosphorylated (UniProt P06400)
# [3] = molecular target: Rb^380-816∆PL/S780A with S807 and S811 substituted for alanine, phosphorylated (UniProt P06400)
# [4] = molecular target: Rb^380-816∆PL/S780A, unphosphorylated (UniProt P06400)
# [5] = molecular target: Rb^380-800∆PL/S780A, unphosphorylated (UniProt P06400)
# [6] = molecular target: Rb^380-794∆PL/S780A, phosphorylated (UniProt P06400)
# [7] = molecular target: Rb^380-816∆PL/S780A with S788 and S795 substituted to alanine, unphosphorylated (UniProt P06400)
# [8] = molecular target: Rb^380-816∆PL/S780A with S788 and S795 substituted to alanine, phosphorylated (UniProt P06400)
# [9] = molecular target: Rb^380-800∆PL/S780A, phosphorylated (UniProt P06400)
# [10] = molecular target: Rb construct phosphorylated at Rb^IDL (T356/T373) (construct of Table 2)
# [11] = molecular target: Rb^53-800∆NL/∆PL/S780A, phosphorylated (UniProt P06400)
# [12] = molecular target: Rb construct phosphorylated at Rb^PL (S608/S612) (construct of Table 2)
# [13] = molecular target: Rb construct phosphorylated at RbC^N (S788/S795) (construct of Table 2)
# [14] = molecular target: Rb^53-800∆NL/∆PL/S780A, unphosphorylated (UniProt P06400 53-800, S780A)
# [15] = molecular target: Rb^53-800∆NL/∆PL/S780A, phosphorylated (UniProt P06400 53-800, S780A, phosphorylated with Cdk; Rb^IDL (T356/T373) and RbC^N (S788/S795) sites)
# [16] = molecular target: T1, Rb^380-816/780A, unphosphorylated
molecule,measurement,setting,value
"E2F1 transactivation domain (E2F1^TD, residues 372-437) (from UniProt Q01094 372-437) (domain or fragment)",Kd,[1],0.47 µM
same,Kd,[2],0.12 µM
same,Kd,[3],0.51 µM
same,Kd,[4],0.07 µM
same,Kd,[5],0.05 µM
same,Kd,[6],0.27 µM
same,Kd,[7],0.09 µM
same,Kd,[8],0.13 µM
same,Kd,[9],0.51 µM
E2F2 transactivation domain (E2F2^TD) (domain or fragment),fold inhibition of binding against the unphosphorylated construct,[10],2 fold
same,fold reduction in binding affinity against the unphosphorylated construct,[11],22 fold
E2F3 transactivation domain (E2F3^TD) (domain or fragment),fold rise of Kd against the unphosphorylated construct,[12],9 fold
same,fold inhibition of binding against the unphosphorylated construct,[10],25 fold
same,fold rise of Kd against the unphosphorylated construct,[13],10 fold
"E2F1 transactivation domain (E2F1^TD, residues 372-437) (domain or fragment, UniProt Q01094 372-437, looked up) DRLSPLVAADSLLEHVREDFSGLLPEEFISLSPPHEALDYHFGLEEGEGIRDLFDCDFGDLTPLDF",Kd,[14],0.13 µM
same,Kd,[15],30 µM
same,Kd,[16],0.07 µM

# From paper PMC3872205 (Journal of molecular biology, 2013)
